Data from the RNAGym collection of RNA variant scans (doi:10.1073/pnas.2313332121).

B1: TPR t1 (parent)
chain: GACCAAUCUGCCCUCAGAGCUCGAGAACAUCUUCGGAUGCAGAGGAGGCAGGCUUCGGUGGCGCGAUAGCGCCAACGUCCUCAACCUCCAAUGCAUCCCACCACAUGAUGAUGCCUGAAGAGCCUUGGUUUUUUG

Variants of: B1
Test: polymerase ribozyme fitness, log enrichment relative to wild type (log ratio); higher = more active; in vitro selection for triplet polymerase activity
In short: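 Mutant libraries of each subunit of a heterodimeric triplet polymerase ribozyme were built by PCR and transcribed. Each library went through one round of in vitro selection in triplicate: annealing with biotinylated primer, partner subunit and triplets, frozen incubation at −7 °C, gel excision of extended constructs, streptavidin-bead capture and RT-PCR. Input and output libraries were Illumina-sequenced; only genotypes with ≥10 input reads and ≥1 read per output were kept. Fitness is log2(genotype enrichment/wild-type enrichment), using inverse-variance-weighted replicate averages.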
For C8A A108G, the “polymerase ribozyme fitness (log ratio)” value was -1.84.
For G42U U78A C85U, the “polymerase ribozyme fitness (log ratio)” value was -2.63.
With A26C U106G the “polymerase ribozyme fitness (log ratio)” value was -6.98.
For G61U U92A, the “polymerase ribozyme fitness (log ratio)” value was -2.49.
In the case of C11A G113A, the “polymerase ribozyme fitness (log ratio)” value is reported as -3.12.
In the case of A29U C76G C86A, the “polymerase ribozyme fitness (log ratio)” value is reported as -2.31.
With U21A A46G G128C G135C the “polymerase ribozyme fitness (log ratio)” value was -0.459.
For C12U A46G C56A A105U, the “polymerase ribozyme fitness (log ratio)” value was -1.73.
With C3U G51C G58A G63U C115G the “polymerase ribozyme fitness (log ratio)” value was -5.47.
For G47U G48A, the “polymerase ribozyme fitness (log ratio)” value was 0.823.
In the case of G39U G61U G110U, the “polymerase ribozyme fitness (log ratio)” value is reported as -2.
For C8U U59G, the “polymerase ribozyme fitness (log ratio)” value was 0.21.
With A29U U92G U109A C115U U130A the “polymerase ribozyme fitness (log ratio)” value was -5.3.
For C11A A26U C72A, the “polymerase ribozyme fitness (log ratio)” value was -5.37.
For U9G A24G, the “polymerase ribozyme fitness (log ratio)” value was -0.443.
In the case of C3A G71A U130C, the “polymerase ribozyme fitness (log ratio)” value is reported as -0.935.
For A2U C56A, the “polymerase ribozyme fitness (log ratio)” value was -2.33.
For G113U U116A, the “polymerase ribozyme fitness (log ratio)” value was -4.64.
With A90G U92G C123A the “polymerase ribozyme fitness (log ratio)” value was -1.06.
With C56G G63U the “polymerase ribozyme fitness (log ratio)” value was -4.87.
For A5U U9G G47A G52U, the “polymerase ribozyme fitness (log ratio)” value was -1.96.
For C13G A37U G48A C49U C85U G93C G120U, the “polymerase ribozyme fitness (log ratio)” value was -1.53.
With A43C U78C C80A C89U the “polymerase ribozyme fitness (log ratio)” value was -4.14.
For G77U C79U U106A, the “polymerase ribozyme fitness (log ratio)” value was -0.0765.
With C94U U125G the “polymerase ribozyme fitness (log ratio)” value was -1.32.
In the case of G44U A46U G117U, the “polymerase ribozyme fitness (log ratio)” value is reported as -4.65.
For G57U G128A, the “polymerase ribozyme fitness (log ratio)” value was -1.33.
For C56U C115U U126A, the “polymerase ribozyme fitness (log ratio)” value was -2.48.
With A37U C40U U87C G135U the “polymerase ribozyme fitness (log ratio)” value was -1.29.
In the case of C8U C13U A43G, the “polymerase ribozyme fitness (log ratio)” value is reported as -1.25.
In the case of C123U U126A, the “polymerase ribozyme fitness (log ratio)” value is reported as 0.0607.
With A26U C72G C97G G117U U125A the “polymerase ribozyme fitness (log ratio)” value was -6.79.
In the case of C11G G17A U81A C85U G117C, the “polymerase ribozyme fitness (log ratio)” value is reported as -4.91.
For C56G G63A C101G G122U, the “polymerase ribozyme fitness (log ratio)” value was -5.14.
With C3U U78C A105U G120C the “polymerase ribozyme fitness (log ratio)” value was -1.99.
For G51U G117A, the “polymerase ribozyme fitness (log ratio)” value was -5.11.
With U9G U59G the “polymerase ribozyme fitness (log ratio)” value was 0.701.
In the case of C88A C99U G113A C114U, the “polymerase ribozyme fitness (log ratio)” value is reported as -5.9.
In the case of A50G C73A U106G, the “polymerase ribozyme fitness (log ratio)” value is reported as -1.39.
In the case of C53U A74C, the “polymerase ribozyme fitness (log ratio)” value is reported as -0.315.
With C8G C124G the “polymerase ribozyme fitness (log ratio)” value was 1.92.
For C15U C86U, the “polymerase ribozyme fitness (log ratio)” value was -1.61.
In the case of C15A C20U G48A A91U, the “polymerase ribozyme fitness (log ratio)” value is reported as -4.59.
With C20G C123G U132G the “polymerase ribozyme fitness (log ratio)” value was -3.39.
For G77C A90G A111G, the “polymerase ribozyme fitness (log ratio)” value was -0.0361.
For U125A U133C, the “polymerase ribozyme fitness (log ratio)” value was -0.0467.
With G61U U129G the “polymerase ribozyme fitness (log ratio)” value was -1.79.
In the case of G61U C104U A108C A121U, the “polymerase ribozyme fitness (log ratio)” value is reported as -2.95.
With U21G G36C C72G the “polymerase ribozyme fitness (log ratio)” value was -2.78.
For C4G C8A C80U C115A G120A U125A, the “polymerase ribozyme fitness (log ratio)” value was -2.71.
For C40U G113A, the “polymerase ribozyme fitness (log ratio)” value was -1.41.
With G17A C72U the “polymerase ribozyme fitness (log ratio)” value was -2.29.
For A6U A41G A91G, the “polymerase ribozyme fitness (log ratio)” value was -2.5.
For A50C C72U G77U C99A U116A G120C C123U, the “polymerase ribozyme fitness (log ratio)” value was -8.09.
With C15A A27C U55G the “polymerase ribozyme fitness (log ratio)” value was -5.9.
For C8U A50U A75U U130A, the “polymerase ribozyme fitness (log ratio)” value was -1.78.
With C4G A111U the “polymerase ribozyme fitness (log ratio)” value was -3.42.
With C8U A29C U55A C56G C88A U112A U130C the “polymerase ribozyme fitness (log ratio)” value was -3.36.
For C4U A37U C40U A83G, the “polymerase ribozyme fitness (log ratio)” value was -2.17.
For A46C G69U G135U, the “polymerase ribozyme fitness (log ratio)” value was -0.586.
In the case of U7A C13G U32C U38G G63C, the “polymerase ribozyme fitness (log ratio)” value is reported as -2.61.
With C56U U129C the “polymerase ribozyme fitness (log ratio)” value was -0.507.
With C62G U106C U131A the “polymerase ribozyme fitness (log ratio)” value was -2.52.
For G52U G93U G110U, the “polymerase ribozyme fitness (log ratio)” value was -3.97.
For C4U C8A C28U U59A, the “polymerase ribozyme fitness (log ratio)” value was -2.29.
With U96A C124U the “polymerase ribozyme fitness (log ratio)” value was 1.03.
With C8U C73G the “polymerase ribozyme fitness (log ratio)” value was -0.251.
With G48A G71C U96C the “polymerase ribozyme fitness (log ratio)” value was -1.75.
For U55C C82A, the “polymerase ribozyme fitness (log ratio)” value was 0.163.
With G17C C62G C64U A68U U81G C114G the “polymerase ribozyme fitness (log ratio)” value was -6.46.
In the case of C8A U38A G42U G45A, the “polymerase ribozyme fitness (log ratio)” value is reported as -2.61.
For A66G U126G, the “polymerase ribozyme fitness (log ratio)” value was -2.72.
With C94U C99U U125A the “polymerase ribozyme fitness (log ratio)” value was -3.61.
For C22U A37U A100C, the “polymerase ribozyme fitness (log ratio)” value was -5.02.
For C22A A29G A50G U116G U129C, the “polymerase ribozyme fitness (log ratio)” value was -5.9.
For C64A U96G C123U, the “polymerase ribozyme fitness (log ratio)” value was -6.2.
With C12U C80U C89U C99U G120A the “polymerase ribozyme fitness (log ratio)” value was -2.97.
For C11U C15A A26G C53G G63U G120C, the “polymerase ribozyme fitness (log ratio)” value was -4.53.
With C4G G39U the “polymerase ribozyme fitness (log ratio)” value was -3.24.
In the case of A5U G39U, the “polymerase ribozyme fitness (log ratio)” value is reported as -1.13.
For G39U A74G, the “polymerase ribozyme fitness (log ratio)” value was -1.85.
With A27G G52A C56U the “polymerase ribozyme fitness (log ratio)” value was -2.59.
For C3U C12A G60A, the “polymerase ribozyme fitness (log ratio)” value was -1.22.
